Reference: the supplement of paper PMC11502859

Test system: HEK293T
Assay: median enrichment of reporter reads in eGFP-reduced (low/intermediate) vs eGFP-high sorted cells (eGFP-extension fusion abundance) (ratio); higher = stronger loss of eGFP-fusion protein abundance (more destabilising extension)
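Further: lentiviral eGFP-IRES-mCherry reporter pool sorted by FACS 96 h post-transduction, gated on mCherry-high cells, Illumina read counts normalized per million, median across four biological replicates.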

Chain of ZNF28 (chain, as listed by the source): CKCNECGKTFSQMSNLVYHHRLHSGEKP

## LIFLI [MAP2]
  median enrichment: 6.91

## RDVQDL [ZMPSTE24]
  median enrichment: 0.177

## KCYRLNDSASRLPKSKALFRAAHSFPQKSS [HIST1H4E]
  median enrichment: 8.92

## WLSF [KRT28]
  median enrichment: 6.06

## LLAL [MS4A5]
  median enrichment: 7.23

## RHRRTPGDFLYICRLRLFVTSKWDIV [TAF4]
  median enrichment: 12

## RGKTWKRPACLQ [RRM1]
  median enrichment: 0.421

## YEQGGLGWPSPGGCGWGQETQPTTAPVSSPHKAAWVCTVCKLQDTLPGDPRGHSYTLFTRKIQRSQ [C2orf50]
  median enrichment: 9.09

## CHLRNI [MLLT10]
  median enrichment: 1.38

## SEITDTFFGIHILGLGGVAHACNPSPLGG [CTSL]
  median enrichment: 13.3

## YYVIRNLVAWPYLAAREPGRYVAGRLGMCPVKNSVDSLIKKKRKKDTMGTLYLVFILCMYRSSKKLHRISVTLYASGKQDWEL [CFAP61]
  median enrichment: 41.5

## LEVVFGVQLLPCTFSLLLSSSTPNRENLGVSGSIWALIYSPSFLSML [ZNF774]
  median enrichment: 9.71

## SPERSQDPSRQHQLTDALVVPPSSPDCARSAVPSSGHLSSLWVPPHPSPC [RBP5]
  median enrichment: 3.81

## YTSVLNQDLTQKD [GTF2IRD1]
  median enrichment: 0.784

## CGWPRAVRTMKPGQRPGASPAALPTRHPPASPLGAGAHPQHPHLLINISTPGCST [COPE]
  median enrichment: 5.98

## LRRVLSNLFFFFLYLHLQPQLSHFSP [MTMR11]
  median enrichment: 11.6

## SAEGKSGKMSFERCIPKASSGASGKSGPTSARPSSPSPAPPLVSSFIQQNLAGK [NKG7]
  median enrichment: 0.737

## SSLPWAG [TMEM266]
  median enrichment: 5.32

## KGRGPAESPCCLLEPPADAVLGPT [MBD3]
  median enrichment: 1.08

## LDRTWEPGGWEGQG [SLC35G6]
  median enrichment: 0.429

## QTGQDPSTCTC [FCN1]
  median enrichment: 0.258

## YRTM [IAPP]
  median enrichment: 0.785

## SGVLSSHFCVTCHFLPLVPCRFGMKMVSFAVFNLFFIMVEYSSRSFVLVYEENLHIFFVFQ [CHIC1]
  median enrichment: 9.4

## LSLLIQKWGQFRKNYLLFAWWFFIMDLAQKKNC [GART]
  median enrichment: 11.7

## CCCCC [Cys05]
  median enrichment: 4.25

## CYSFQLLPLCLPG [TRIM55]
  median enrichment: 7.06

## SVLPSVTSNSGKRKLK [STARD13]
  median enrichment: 0.451

## WGPGAFPRSSPSSI [RNASEK]
  median enrichment: 0.405

## YARWLRNTGEASAFGKEICFGDDLSGNLNLLL [GBA3]
  median enrichment: 5.41

## SACPQHLLPPSLGVWIPMELGSAGHNLFLASDLPAIIKWLQIGT [LRRC59]
  median enrichment: 7.87

## YKVPLANCLEAQHNPKALFR [HIST1H1E]
  median enrichment: 6.29

## LISLSKSIKRESSLQK [SYNGR4]
  median enrichment: 8.85

## QESKSTLPSHHHGPTGYPEQLHTLLEVSRSLPA [ADAMTSL1]
  median enrichment: 2.98

## LRRGGKREKMERGAGNGGERTSKETEMKT [ZSWIM9]
  median enrichment: 1.53

## SSSSSSSSS [Ser09]
  median enrichment: 0.295

## GRGMASGREGGIVGGQGSGFGSRWEQGLVKLFVSGPQ [PAQR7]
  median enrichment: 12.5

## RCLELCCCQHDLFGA [TPH2]
  median enrichment: 5.32

## HHHHHHH [His07]
  median enrichment: 0.367

## FFFFFFFFF [Phe09]
  median enrichment: 9.48

## CPSGPPLPLGQGNQLLRDFSCLEGAVIAPPHCPTVLLGL [FBXW4]
  median enrichment: 12.6

## RGGSASVPSLTSLGCCFSGVMSPLPLGYLPSTGQGPWWADGN [SFXN3]
  median enrichment: 21.3

## LNFHTEF [TP53BP2]
  median enrichment: 0.758

## RILSLIPATPLLISGGRTVSELFVSIGHLSLVVKDWLMITMHRKTFRRKGECFVDHFGFLFCVWQF [EEF1A1]
  median enrichment: 5.71

## CGLPSGGGAMWLGS [SMYD1]
  median enrichment: 0.906

## LLYSILWSSSSVARPLILSFAHVHPN [KCNK17]
  median enrichment: 25.2

## WSILQDLPEAA [PCDH10]
  median enrichment: 9.03

## GGPSV [NDUFV3]
  median enrichment: 0.139

## RGHRSEMRGLECGWAPGAMGGCGAGEIKSELLLPGVPTSSSGQSVHSQPDR [BCL2]
  median enrichment: 1.46

## ITGTACLGTRFPPAAVTMVASTATPGVQSTAPCPPCVPRSRGSVHHSSPRWRAGLPGGSPVALPWLWGWRDLARMNPPVPGTL [PIGQ]
  median enrichment: 3.37

## LAPASGLAIPLLSADYGVSTFGHNTYSPFTLYHSATNHRTDHLRLFLLALCVQDSLIHFCW [GIGYF2]
  median enrichment: 35.9

## GLPPWSLNPAPTSCLFS [PRDM10]
  median enrichment: 5.78

## SFLFYSH [DNAJB9]
  median enrichment: 9.2

## RGIRLPGNSGTVALADHLQHPAS [SLC2A10]
  median enrichment: 0.279

## GCVLSQIYLLD [HYPK]
  median enrichment: 11.9

## LRWLACWAWGLLTDSMEQGWAVCAHAQHALRGGGGGRGFLMSVQELKVSGVLPRICPTPHDKTELCNKQYQFILAVGFCFFSS [WDR6]
  median enrichment: 7.93

## ERAPTGRWGRRG [Degron KLHDC3]
  median enrichment: 5.05

## CVARALGVLLEAPRASRIASQLPGQPTLLQPLTRTPVIRTGAPVPWSPPWAHVLTQAQQ [OVOL1]
  median enrichment: 8.09

## STVKEGVFVWTR [DSC1]
  median enrichment: 2.35

## QNASVRIKD [BORA]
  median enrichment: 0.475

## QCDSQCNNIKISFYIII [ASNSD1]
  median enrichment: 4.36

## YDSLVL [ALDH5A1]
  median enrichment: 0.258

## GAPPPGWTGAWLPSSFLPWLPEETPLTQPAWALTTNTLGHGQPAQDRLPALGHCAPISVLGLGSS [TTYH1]
  median enrichment: 15.2

## MMMMM [Met05]
  median enrichment: 5.18

## FLQRTALIFRFKRLPTR [Degron UPS]
  median enrichment: 6.83

## ZNF28
  median enrichment: 1.64

## SGAGPGPRGGTSINSVAKLE [MYL7]
  median enrichment: 0.743

## SLRLQRLLCIAFLLQCKERDQGSQEMFAQNGR [GDNF]
  median enrichment: 8.43

## SESTGSSQTYRCPAR [FAM221B]
  median enrichment: 0.476

## PPPPPPP [Pro07]
  median enrichment: 1.37

## GTQSSLLAVDFPLLLEPPIKEIQRDSCRPEAEHTFMAGALRGVLDPAPGDTIHFYCFVVTRALQPVFLKNQGPLPPPLPWGET [PLOD1]
  median enrichment: 6.78

## YSYSVMTLVIFCVL [HTR1D]
  median enrichment: 15.3

## WSDCPENQKSKETRETSSLVNEPIKSRSLKKYVSVKKENRIVTVSSKTNKSKSSPLEHSESDTLGCDFEFQESIHSLSHLSYD [CEP78]
  median enrichment: 1.3

## WWRDTRGLATLWGNWHQELLHLVSAQVDLRKGWIPVPEHQIPRQLMRLAQCVTEAPGSQQSRAYSAHQAEQATGRDDASGQGS [CCDC137]
  median enrichment: 7.53

## YKLGLCFLLVTEDWVAP [SOAT1]
  median enrichment: 9.15

## RGLLPLGPLTLSGWWTTKYNPVYNLKIYFTFVLLYLFIKG [SMAD4]
  median enrichment: 6.89

## LKPPSAGDPDKMAP [KRTAP1-1]
  median enrichment: 0.285

## LPLVLYSNLFGNDSSTHRTACVRAHTHTHTHTHTHH [GNAO1]
  median enrichment: 3.16

## RAKPDGQHRHRHTPQGPTLLSFTVPWHIGERIYPSPGSPGHSVLSKTRMWYQLWKRKVSCQQYLLPSRQPSQVRHLLRSHREP [SPSB4]
  median enrichment: 7.24

## SPARRPSQRVTRPRGRTDSSDSPQ [EPS8L1]
  median enrichment: 0.338

## RSSKPTKHQKTHSQTSEHKLHG [PLCB4]
  median enrichment: 0.191

## WNQS [CFHR1]
  median enrichment: 0.596

## CGGLVSELGLCRESLFCVSHPLPDPSLCLYSLNSVEFN [MCM3]
  median enrichment: 13.4

## CAQDGPRPSMANNHVRHSTSGRCSDASAGAGTPNPWLQNRDPHPDRGSSAFEGFQAGLCGTEAQRGPGTWQRWGREEIQLPSL [CCDC86]
  median enrichment: 5.52

## YRRQRAWCDLVGSGNGRKRSPP [BTBD9]
  median enrichment: 6.86

## YHQNLCQNTKECA [TLL1]
  median enrichment: 0.773

## SAASWPWGRGLGCGAVWVLSSSPLPRPSLSNPAWDLGFNAEAMSLSGPASGYSHPGTEKAADGDCLPQPQQHLGLQLLESYHP [LGALS9]
  median enrichment: 7.86

## EFFLELKHPRMPLHVFHSPHLQTSLLFLTRPESKLPSLGNSGEGVSCTTYHTPSHPVSDFGMDSGKLGPSLNRVMYLNVCYFQ [HSPA1L]
  median enrichment: 5.31

## CPLSATHVVPSLPSFHLDVPPSPTSAPLLPRLDLKPELPLNLEYATYNMQAAKHPFCTRRLEWNCHVQ [PRR20A]
  median enrichment: 5.57

## CIYTAKKNYECMEFFKKKYNALLQRTLGKKPYVKVMTVK [ZNF140]
  median enrichment: 22.2

## YDHPTTRSAANSGLSLGVAPSLLLPLN [TRIB3]
  median enrichment: 6.29

## WCSYLFFSSLS [LAMTOR5]
  median enrichment: 13.3

## LFVKLCLIM [GPR112]
  median enrichment: 13.7

## RGAGTCDRLWWHH [NAGA]
  median enrichment: 1.53

## KDS [RPAP1]
  median enrichment: 0.532

## SEMPAALPCQR [CUEDC1]
  median enrichment: 1.21

## GSSC [KRTAP13-1]
  median enrichment: 0.297

## TMNNEEDLLRSL [Degron FEM1C]
  median enrichment: 0.347

## QHEKDWGGQGGQPAEMRGAGGHSPFSGLDPLRSSPTSCTDNAL [MAP3K9]
  median enrichment: 0

## ELQEAN [GZMB]
  median enrichment: 0.208

## YPQPPPHHPLPKSSACSPGERTAGLSY [COTL1]
  median enrichment: 11.5

## LNGSHSVTQAGVKWPNHSSLQPQPGRFR [COX17]
  median enrichment: 8.21

## WGAPQEGPVDLRRLHKKLMDHWSVPMGSIISSTLKMSKVCSFQTASPGSLGNAGKSKRISLALIT [ACSM5]
  median enrichment: 17.8

## QRLAPACTPAPAAGSPQSQPFGTVLTL [ABCG4]
  median enrichment: 28.4

## CPAVGMAGLPGQTR [SLC25A10]
  median enrichment: 0.543

## WERPGGGAHWEGQDSVPALILPCPDVSCFAQRSFLSTPLIPRLVPREGWRPGHGPSRRGREGRRGRGRIEPIPAGEGEPSVHL [ASIC4]
  median enrichment: 1.34

## RGPASHGPRTMESPLSS [GNB1L]
  median enrichment: 0.533

## QSSLSR [SCAF8]
  median enrichment: 1.11

## REDAFLFMGFLPWSLSSKCHSGQSFVSVS [NOD1]
  median enrichment: 33.9

## QELSERCSIPFPHGKAK [ASXL3]
  median enrichment: 0.227

## EPVKNHAKAKTRSAERAHGSSRLVGDQAHLICTNCSTC [OCSTAMP]
  median enrichment: 3.35

## PKWNHLTSAAPDLPGRMPLPLPSSNPQTRTPFLPPQAGPAPGVGSALSTPRAPRPSEGAPAGASDTLQFRAVGGLGHIPVPWL [SECTM1]
  median enrichment: 1.79

## EATKRPGFSSCCHQLALWPRARCLPFMFPHLQSELVVPDDLRSHDLLTCPMILYFVGRSIKQLLLLLCANHSCNFCSAYLPLF [ADAMTSL1]
  median enrichment: 5

## SYEQNKTLRKINRQGSDLFLKNLRSVDSQED [PRKACB]
  median enrichment: 2.01

## EETTHPEPQHCLTLGTRDPTEMFWRAGGFPQSPPSSSPSNQSCV [SERPINA6]
  median enrichment: 0.705

## LVGWLLVFVSFLSCLLLKGNQK [MYCT1]
  median enrichment: 9.75

## SLIRLAT [AK6]
  median enrichment: 9.3
